Values quoted from earlier work as cited in US20060275806.
Where two headings read alike, the source gives them in different places.

Columns and labels:
[1] = tested on: MDBP2 (methylated DNA binding protein 2); details: method not given
MLL MT domain = details: method not given

In the case of DNA with single fully methylated CpG, the Kd ([1]; 5mC at CpG, both strands, error 0.08 nM) is given as 2.7 nM.

For non-specific DNA, the Kd ([1]; error 46.8 nM) is listed as 189 nM.

For unmethylated CpG DNA, the Kd (MLL MT domain) is listed as 33 nM.
